What was measured:
Assay in all cases: purified protein
Details in all cases: 25 mM Tris-HCl pH 7.4, 37 °C, 0.05 μM enzyme, no added metal mentioned
[1] = substrate: C[C@H](N)C(=O)Nc1ccc([N+](=O)[O-])cc1
[2] = substrate: CC(C)C[C@H](N)C(=O)Nc1ccc([N+](=O)[O-])cc1
[3] = substrate: N=C(N)NCCC[C@H](N)C(=O)Nc1ccc([N+](=O)[O-])cc1
[4] = substrate: NCCCC[C@H](N)C(=O)Nc1ccc([N+](=O)[O-])cc1
[5] = substrate: N[C@@H](Cc1ccccc1)C(=O)Nc1ccc([N+](=O)[O-])cc1

B1: LmAmpII (Listeria monocytogenes EGD-e) (protein)
chain: MTVFSEKLEKYAELIVKVGVNVQPEQKVVIMAPVDAAPLVRLISKYAFEVGAEDVIMDWRDEELGALRYKNAPLRVFESAPVHRVAEKTELAKEGACFISITSEDPDLLNGVDSNKIATFQKTMGGAMSEFRELMQANVVSWTVVAAASQGWAAKVFPDLTPAEQMETLWEAIFETTRINTENPVETWKNHDQTLAAKAESLNEKQFTSLHYTAPGTDLTIGLPKNHLWVGAGSKNKKGHEFMANMPTEEVFCCADKLKVEGYVSSTKPLSYAGNIIDDFKITFEKGRIVGVEAASGEEILKDLIATDEGSHYLGEVALVPDPSPISQSGILFYNTLFDENASNHLAIGSAYAFNVKGGEEMSREELEAAGVNNSLTHVDFMIGSSEMDIDGVTESGEVVPVFRKGDWAF
[1]
  Km: 340 µM
[2]
  Km: 95.62 µM
[3]
  Km: 24.94 µM
[4]
  Km: 165.6 µM
[5]
  Km: 399.6 µM

Source: paper PMC7023490, “An M29 Aminopeptidase from Listeria Monocytogenes Contributes to In Vitro Bacterial Growth but not to Intracellular Infection” (Microorganisms, 2020)
